Assay results reported in the supplement of paper PMC10724198.
± gives the standard deviation of the averaged measurements.

Tested on: Saccharomyces cerevisiae
Assay: protein stability index of tFT-peptide fusion (C-terminal peptide) (PSI (0-1 scale)); higher = more stable (slower turnover)
Details: genetic background: wild type; temperature: 30 C
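Note: PSI is a weighted mean of sequencing reads over stability bins, variants kept only with over 10 reads, mCherry proximal and sfGFP distal, peptide attached via GGGS linker.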

PPPLPLPSPPPP
protein stability index: 0.671 ± 0.089

PPPLPPIPSRPH
protein stability index: 0.701 ± 0.019

PPPLPPLSPPPS
protein stability index: 0.749 ± 0.023

PPPLPPPPPAPS
protein stability index: 0.692 ± 0.0096

PPPLPPPPPPPP
protein stability index: 0.673 ± 0.026

PPPLPPPTPLPT
protein stability index: 0.681 ± 0.12

PPPLPPRLPHLA
protein stability index: 0.664 ± 0.036

PPPLRAFPPPLL
protein stability index: 0.648 ± 0.06

PPPLSCPRPPIT
protein stability index: 0.664 ± 0.031

PPPLSLLPPCSP
protein stability index: 0.678 ± 0.12

PPPNPFRGPFPL
protein stability index: 0.663 ± 0.035

PPPPAPPPLLLP
protein stability index: 0.717 ± 0.044

PPPPAPSPPIPP
protein stability index: 0.692 ± 0.037

PPPPDPPAPSSP
protein stability index: 0.749 ± 0.078

PPPPFPPPSPPL
protein stability index: 0.7147 ± 0.0063

PPPPFRPSPPLP
protein stability index: 0.664 ± 0.0084

PPPPHAHFPPPP
protein stability index: 0.652 ± 0.013

PPPPHPPPPLFP
protein stability index: 0.714 ± 0.083

PPPPHPPRPPRP
protein stability index: 0.676 ± 0.0074

PPPPLAPAPPAF
protein stability index: 0.744 ± 0.016

PPPPLLPPPIPL
protein stability index: 0.6847 ± 0.0032

PPPPLLRSPLHL
protein stability index: 0.731 ± 0.011

PPPPLPDTLRSP
protein stability index: 0.6238 ± 0.0053

PPPPLPLPPFSP
protein stability index: 0.8017 ± 0.0011

PPPPLPPCTPAT
protein stability index: 0.6797 ± 0.0047

PPPPLPPLSPSP
protein stability index: 0.7604 ± 0.0068

PPPPLPPSPCSL
protein stability index: 0.567 ± 0.019

PPPPLRPPAAPP
protein stability index: 0.639 ± 0.005

PPPPPLPRSPSP
protein stability index: 0.807 ± 0.12

PPPPPLYLPRFV
protein stability index: 0.675 ± 0.056

PPPPPPARLPSP
protein stability index: 0.711 ± 0.017

PPPPPPATPPPS
protein stability index: 0.681 ± 0.045

PPPPPPGHLPRL
protein stability index: 0.76 ± 0.05

PPPPPPGSPTRP
protein stability index: 0.788 ± 0.075

PPPPPPLFPPCP
protein stability index: 0.659 ± 0.11

PPPPPPLSPSPP
protein stability index: 0.756 ± 0.011

PPPPPPLVLSPL
protein stability index: 0.678 ± 0.02

PPPPPPPHLPSL
protein stability index: 0.711 ± 0.079

PPPPPPPLPSLR
protein stability index: 0.671 ± 0.0086

PPPPPPPLVPPL
protein stability index: 0.703 ± 0.12

PPPPPPPNSHPH
protein stability index: 0.678 ± 0.021

PPPPPPPPAPLP
protein stability index: 0.708 ± 0.089

PPPPPPPPLPPP
protein stability index: 0.5856 ± 0.0041

PPPPPPPPPPPP
protein stability index: 0.627 ± 0.031

PPPPPPPPPPSL
protein stability index: 0.746 ± 0.061

PPPPPPPPPPSS
protein stability index: 0.709 ± 0.13

PPPPPPPPPRSS
protein stability index: 0.718 ± 0.021

PPPPPPPPSALP
protein stability index: 0.719 ± 0.043

PPPPPPPRPDPP
protein stability index: 0.557 ± 0.04

PPPPPPPYPLIP
protein stability index: 0.67 ± 0.013

PPPPPPRFHALH
protein stability index: 0.715 ± 0.021

PPPPPPRRSSPP
protein stability index: 0.681 ± 0.069

PPPPPPSPLGPP
protein stability index: 0.674 ± 0.057

PPPPPPTPSLRL
protein stability index: 0.72 ± 0.021

PPPPPPTRCHTP
protein stability index: 0.728 ± 0.056

PPPPPPVPSRPL
protein stability index: 0.644 ± 0.046

PPPPPPVRSLPL
protein stability index: 0.72 ± 0.088

PPPPPRAAPPPP
protein stability index: 0.668 ± 0.061

PPPPPRHPSSPP
protein stability index: 0.71068 ± 0.00014

PPPPPRPPLPHL
protein stability index: 0.686 ± 0.038

PPPPPSAISPTH
protein stability index: 0.732 ± 0.0036

PPPPPSFSFPPT
protein stability index: 0.706 ± 0.049

PPPPPSHPPPLS
protein stability index: 0.571 ± 0.0097

PPPPPTALLRPP
protein stability index: 0.731 ± 0.18

PPPPRPAPAPLL
protein stability index: 0.6948 ± 0.0067

PPPPRTLASPSY
protein stability index: 0.679 ± 0.026

PPPPSAPPLPLP
protein stability index: 0.61 ± 0.018

PPPPSLPPPLPF
protein stability index: 0.7844 ± 0.0011

PPPPSPALPTFP
protein stability index: 0.715 ± 0.049

PPPPSPFPLPSP
protein stability index: 0.6846 ± 0.0024

PPPPSPSPLPPS
protein stability index: 0.751 ± 0.015

PPPPTPPYTPVP
protein stability index: 0.623 ± 0.032

PPPQGSQPSTLS
protein stability index: 0.739 ± 0.051

PPPQHLPPPSLS
protein stability index: 0.676 ± 0.019

PPPRPICCALNS
protein stability index: 0.655 ± 0.014

PPPRPLQPRPRP
protein stability index: 0.6502 ± 0.0019

PPPRPPALPPLP
protein stability index: 0.69 ± 0.016

PPPRPPPASPVP
protein stability index: 0.708 ± 0.076

PPPRPPSPLSLA
protein stability index: 0.643 ± 0.1

PPPRPTVPPGSR
protein stability index: 0.668 ± 0.014

PPPRSPPFPSPL
protein stability index: 0.689 ± 0.042
